# From patent US9371519B2, “Complex type sugar chain hydrolase” (National Institute of Advanced Industrial Science and …, priority 2011, dated 2016)
# Test: Hydrolysis activity for various PA-labeled sugar chains (HPLC peak area ratio, relative to M8A)
# Type: biochemical
# Details: 1 μM substrate, pH 5.3, 30° C.
# Description: (§1) Using the Endo-Om partially purified enzyme solution of the present invention, hydrolysis activity for various PA-labeled commercially available sugar chains (TaKaRa-Bio Inc.) were measured, and the results are shown in the following (Table 1) together with the measurements in a literature on Endo-M (Non Patent Literature 6). The hydrolysis activity at that time was calculated from the peak area ratio between the PA-labeled sugar chain and its hydrolysate as substrates in HPLC, and the relative activity for the various sugar chains was calculated, with the hydrolysis activity for the sugar chain with an M8A structure set at 100%.
# as §1, with “Endo-Cp” for “Endo-Om”, “2)” for “1)”
# as §1, with “Endo-Pa” for “Endo-Om”, “3)” for “1)”
# as §1, with “Endo-Zr” for “Endo-Om”, “4)” for “1)”
# Comparison of hydrolysis activity for PA-labeled sugar chains having various structures was carried out as follows. A reaction solution containing a sodium acetate buffer at final concentration of 100 mM (pH 5.3), 0.5 M of NaCl, 1 μM of any of various PA-labeled sugar chains (TaKaRa-Bio Inc.), and an Endo-Om purified enzyme solution (total volume: 10 μl) was incubated at 30° C. for 3 to 12 hours, and heated at 95° C. for 5 minutes thereby stopping the enzyme reaction. The reaction solution was subjected to HPLC, and enzymatic activity was calculated from the peak area ratio between the PA-labeled sugar chain as the substrate and its hydrolysate. The column used herein was Cosmosil 5C18-ARII (2.0.150 mm, Nacalai Tesque, Inc.), the solvents were a 0.1 M ammonium acetate buffer (pH 4.0: solvent A), a 0.1 M ammonium acetate buffer (pH 4.0), and 0.5% 1-butanol (solvent B). Linear gradient elution was carried out using the solvent B: 5%-50% at a flow rate of 0.5 ml/min over a period of 24 minutes, and detection was carried out using a fluorescence detector (excitation wavelength 320 nm, and fluorescence wavelength 400 nm). The enzymatic activity was calculated with the activity hydrolyzing 1 μmol of the PA-labeled sugar chain in 1 minute under the above-described reaction conditions as 1 Unit, and the relative activity for various sugar chains were calculated with the hydrolysis activity for the sugar chain having an M8A structure as 100%. […]
# [1] = substrate drawing 1/drawing 14/drawing 27/drawing 40 (M3B structure), M8A = 100%
# [2] = substrate drawing 2/drawing 15/drawing 28/drawing 41 (M5A structure per text), M8A = 100%
# [3] = substrate drawing 4/drawing 17/drawing 30/drawing 43 (high-mannose type M8A-PA sugar chain, set at 100%)
# [4] = substrate drawing 5/drawing 18/drawing 31/drawing 44 (M9A structure per text), M8A = 100%
# [5] = substrate drawing 7/drawing 20/drawing 33/drawing 46, M8A = 100%
# [6] = substrate drawing 8/drawing 21/drawing 34/drawing 47, M8A = 100%
# [7] = substrate drawing 9/drawing 22/drawing 35/drawing 48, M8A = 100%
# [8] = substrate drawing 6/drawing 19/drawing 32/drawing 45, M8A = 100%
Molecule,Relative activity (hydrolysis activity for PA-labeled sugar chain) [1],Relative activity (hydrolysis activity for PA-labeled sugar chain) [2],Relative activity (hydrolysis activity for PA-labeled sugar chain) [3],Relative activity (hydrolysis activity for PA-labeled sugar chain) [4],Relative activity (hydrolysis activity for PA-labeled sugar chain) [5],Relative activity (hydrolysis activity for PA-labeled sugar chain) [6],Relative activity (hydrolysis activity for PA-labeled sugar chain) [7],Relative activity (hydrolysis activity for PA-labeled sugar chain) [8]
"Endo-Zr: endo-β-N-acetylglucosaminidase from Zygosaccharomyces rouxii ATCC2623, amino acid sequence SEQ ID NO. 13, 639 amino acids (protein, listed as Zygosaccharomyces rouxii) MKRINQVPGKPEITSLYFDDLNSLQRWFDKGFMDSRDLSNVPKERYSNYVKFEKDSIITIPNLSARKTEIIVCHDFKGGYQSGHDLYPNGQYGTESCKPYSLRYPEIVDKFVYFSHHCVTIPPSPWTNYLHRHSIPVLGTLILEHYPHNGELFKKNAKGEFLYVKYLVELCRKFHFEGWLINFETVFGNNSKQVIPFLRELTARVECEIYGGSVIWYDAFTTFSNKPSHQNEVNLFNYDAYENSSQFMTNYMWDSHNVGNSLRNVGALGMHSHVALGVDVWGRNMQVCRGGFESNIAIYYAKRFGTNAVIFAPGWTYENFGEDQFYEKDDIFWGNIKSTLQLDSYSDSQLSSWFVSESKKTRYFTTFFSTGSGNFFNLNGRRISNDNWVQLGLSTPFPVNSHSYLSFKDSFVGGSCLALPLSPMENGKLHLFRFEQFIKDQQKTSDSEIRVKLSYKSLGALPPVKLVIKCFVIRRGKRSKTILKVDDVSLVLPLSHSACQTAQGSTKWAVVEQIVPLPSLESRFLEEYYVEDAHLEWTMDNNHDEWLMVPERTEDLDCKLLIGSLCLEIGPHEDNNKRQIVRNGPQLSWQDNESSFMWLKLQDGKLDSVLFTPTTKVNGKQPTILECGRNGTLKFVVKK",85.7%,39.8%,100%,33.4%,13.2%,17.3%,30.0%,
"Endo-Cp: endo-β-N-acetylglucosaminidase from Candida parapolymorpha DL-1 ATCC26012, amino acid sequence SEQ ID NO. 5, 745 amino acids (protein, listed as Candida parapolymorpha) MPRNTAKHSSLPQTNLPLSSLESSFFDSLDELANWERRIHEKSFELDELNKPTEKLAHYTRARQQSTSEDVKLLVCHDLKGGYQVNEDEDPLGYFPHPDGQHYFLQYPQLVDKFVYFSHHRVSIPPVSWINVCHRNAIKCLGTVIFEGNTYRDFEEADKLLTKQDGEYVFVRCLVALVEYFQFDGYLFNIETRFSNTRIASLLEPFLEQLRAELHVRNPSTELIWYDSYIYPENRVLYKNGVTEANYNFFSCCDSFFTNYWWNVKHLQDNIKNVGVLGSRLKVYAGYDVWGRGTMIGKGGYDSALACQMIKKYRSNVALFAPAWTYEYLARKDFTQNDTRFWIGLFDGESSMATTFKPYSSPLYKINDSNFVFYTNFGSGEGCAFYECGEKVYRDNWVNGSLQMEIPYAIHTRNKNGIQWTLSKEDSFHGGSCVEIKYNEVVDDKGYQVFNNQTINSFSLFSFVQDCSFPTVNVKLTYKLNHKTKSFFKLKIGYYIERRYRTVQKVRSGCLVVPLLSTNDQWFTIEEPFHVSLQNSHEFIVLDSATIFYEETEDPFMRAHVVEDQSTSSVIDNEEYEKLMNSEIYFDDEDEDWILVPSDISMESTDNGGRENHTWKVISNQIRKKHPKSHPSTSPVLKLGELAIINANDYPSDSFFKLMPVNSIDVRRWEGKILLIWKTNQDSVLYHLIFVDDVFQGISLVSKFVFEDQAVDEKSFKTKSGGSTKVRIDTVNRLGILVKGTDM",37.3%,15.1%,100%,21.6%,4.7%,1.1%,3.1%,0.4%
"Endo-Pa: endo-β-N-acetylglucosaminidase from Pichia anomala ATCC36904, amino acid sequence SEQ ID NO. 9, 656 amino acids (protein, listed as Pichia anomala) MQHDHAAIKFEEDSISSQRFSSLDEVEKWYNTKNRSPLDDLRIPRESLSHYNRFRDNNDEIKVLVCHDFKGNYQEGEDENPLGYFPHSSGQHYFIQFPSLVDLFIFFSHYKIAVPPVSWINSLHRQGIPVLGTLIFEGTDVSESDKLLEKNENGDFKYLEILCELVRHYGFDGWLVNMESHFSSVAKAQDLLLFDEALRSTLHLKVPGSKLIWYDSLITQKNRVFYQNAVNEWNYDHFSTSDLFFTNYWWNEEDLKRNILNIGLQGVKQKLFVGVDIWGRGSRIGNGGFESGLAINYLKRYSTNVALFAPAWTYENFEEDQFLIKDRKFWIGDQTSDETGGSVATYVSHYTTPVYVKDQNVKFYTNFSVGEGTKYRVFAHTVFKNNWVNGNLQLPTPIIDNEKRIDIYYKESFNGGSSLKVTQRNSILNDGKSNILQLFSFKNDIHSNNLNVSVSFKYLSEIPLNSTFQLEIKFYIERRYRSVTRVRDGTFKLPLAFSNKNWKYIETSFALPRLQIREHFVLEGLQIRWVDNVDELSSSIGTSGDFTESWIIVPQNSDPNAVYELLIGDLLVEGIKTANGNIDAVTKLSRKITLDSRSILATWKDDTEVLYWIIYVNAKFLGIAHKSLWRVQRGDKLRVDVFTRSGKLVKGEDIFI",152%,94.3%,100%,115%,35.4%,36.3%,40.5%,4.0%
